Legend:
Assay in all cases: cell_activity
[1] = tested on: ZFN 18477 (synthetic); settings: pair with 18473; Cel-I assay
[2] = tested on: ZFN 25096 (synthetic); settings: pair with 18473; Cel-I assay
[3] = tested on: ZFN 18473 (synthetic); settings: pair with 25096 (26.5% with 18477); Cel-I assay

## CTAGAAAGACTGGAGTTGCAGATCACGA (double strand) [18477 target]
[1]
  activity: 26.5 % NHEJ

## CTAGAAAGACTGGAGTTGCAGATCACGA (double strand) [25096 target]
[2]
  activity: 35.7 % NHEJ

## GATGGGCGGGAGTCTTCTGGGCAGGCTT (double strand) [18473 target]
[3]
  activity: 35.7 % NHEJ
